# B1: 沙贝病毒广谱人源中和抗体74 (antibody, V domains shown)
# VH: QVQLVQSGAQLKKPGESLKISCKGSGYNFSRYWIAWVRHMPGKGLEVMGIIYPDDSDTRYSPSVRGQVTISADKSTSIVYLQWSSLKASDTGIYYCARFGAGMTGMPRYFDTTRWFDPWGQGTQVTVSS
# VL: QSVLTQPPSVSGAPGQRVTISCLGGSSNIGAGYDVHWYQHLPGAAPKLLISGNSNRPSGVPARFSGSKSGTSASLAITGLQAEDEADYYCQSYDNDLSQVFGGGTKLTVLG
# Legend:
# Test in all cases: cell-based or functional assay
# [1] = molecular target: SARS-CoV-2 Beta 假病毒 S蛋白 (SARS-CoV-2 (Beta))
# [2] = molecular target: SARS-CoV-2 Omicron BA.2.75 假病毒 S蛋白 (SARS-CoV-2 (Omicron BA.2.75))
# [3] = molecular target: SARS-CoV-2 Delta 假病毒 S蛋白 (SARS-CoV-2 (Delta))
# [4] = molecular target: SARS-CoV-2 Omicron BA.2 假病毒 S蛋白 (SARS-CoV-2 (Omicron BA.2))
# [5] = molecular target: SARS-CoV-2 Alpha 假病毒 S蛋白 (SARS-CoV-2 (Alpha))
# [6] = molecular target: SARS-CoV-2 Omicron BA.1.1 假病毒 S蛋白 (SARS-CoV-2 (Omicron BA.1.1))
# [7] = molecular target: SARS-CoV-2 Omicron BA.4/5 假病毒 S蛋白 (SARS-CoV-2 (Omicron BA.4/5))
# [8] = molecular target: SARS-CoV-2 Omicron BA.1 假病毒 S蛋白 (SARS-CoV-2 (Omicron BA.1))
binder,measurement,setting,value
B1,"IC50, 假病毒中和",[1],1.62 µg/mL
same,"IC50, 假病毒中和",[2],1.7 µg/mL
same,"IC50, 假病毒中和",[3],1.7 µg/mL
same,"IC50, 假病毒中和",[4],3.49 µg/mL
same,"IC50, 假病毒中和",[5],0.76 µg/mL
same,"IC50, 假病毒中和",[6],0.2 µg/mL
same,"IC50, 假病毒中和",[7],2.81 µg/mL
same,"IC50, 假病毒中和",[8],0.91 µg/mL

# From patent publication CN115850461A (INST MICROBIOLOGY CAS, dated 2023)
